According to doi:10.1101/2023.08.04.551977 (bioRxiv, 2023):
Where two headings read alike, the source gives them in different places. One block for each molecule: values may come before it.

Key:
Wild-type menin (human) [1] = molecular target: Wild-type menin (human) (UniProt O00255); assay: MST
Wild-type menin (human) [2] = molecular target: Wild-type menin (human) (UniProt O00255); assay: MST; remark: listed apart in the source
[3] = molecular target: menin Δ460-519/ 586-615 (human) (UniProt O00255); assay: MST
menin Δ460-519 (human) = menin Δ460-519 (human) (UniProt O00255); assay: MST
menin-MLL complex = menin-MLL complex (UniProt O00255); assay: MST
[4] = molecular target: His-sumo-AR MBR (aa. G473-T560); assay: BLI
Wild-type menin (human) [5] = molecular target: Wild-type menin (human) (UniProt O00255); assay: dynamic light scattering
[6] = molecular target: His-sumo-AR MBR (aa. G473-T560); assay: BLI; remark: listed apart in the source
His-sumo-AR MBR A = His-sumo-AR MBR A (UniProt P10275); assay: BLI
His-sumo-AR MBR B = His-sumo-AR MBR B (UniProt P10275); assay: BLI
Wild-type menin (human) [7] = molecular target: Wild-type menin (human) (UniProt O00255); assay: SEC
dynamic light scattering = molecular target: the molecule itself; assay: dynamic light scattering
AR MBR (aa. G473-T560) = assay: NMR titration
MST = molecular target: the molecule itself; assay: MST
AR-v7 = molecular target: T1, AR-v7 (UniProt P10275-3 1-644); assay: MST
T1 sequence: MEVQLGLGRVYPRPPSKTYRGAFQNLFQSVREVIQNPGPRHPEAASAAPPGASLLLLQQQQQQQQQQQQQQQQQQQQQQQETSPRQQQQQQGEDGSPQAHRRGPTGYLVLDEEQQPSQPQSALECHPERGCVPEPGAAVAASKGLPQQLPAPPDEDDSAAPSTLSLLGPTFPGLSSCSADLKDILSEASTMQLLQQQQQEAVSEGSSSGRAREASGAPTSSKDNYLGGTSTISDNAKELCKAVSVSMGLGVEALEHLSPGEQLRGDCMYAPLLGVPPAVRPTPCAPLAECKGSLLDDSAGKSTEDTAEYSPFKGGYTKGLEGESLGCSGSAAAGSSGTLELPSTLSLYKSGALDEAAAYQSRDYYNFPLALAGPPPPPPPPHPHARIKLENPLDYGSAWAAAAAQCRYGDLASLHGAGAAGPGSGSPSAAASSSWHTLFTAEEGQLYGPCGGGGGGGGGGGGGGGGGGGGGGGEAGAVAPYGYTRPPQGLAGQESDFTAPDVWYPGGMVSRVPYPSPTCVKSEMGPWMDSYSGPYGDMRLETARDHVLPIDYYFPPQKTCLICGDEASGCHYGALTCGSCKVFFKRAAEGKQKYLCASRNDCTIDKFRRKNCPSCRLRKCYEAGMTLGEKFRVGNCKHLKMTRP

HPLC-SAXS = molecular target: the molecule itself; assay: HPLC-SAXS

Molecule: menin-MLL complex (from UniProt O00255;Q03164)
Kd [4]: 10.5 µM

B1: Wild-type menin (natural protein)
chain: MGLKAAQKTLFPLRSIDDVVRLFAAELGREEPDLVLLSLVLGFVEHFLAVNRVIPTNVPELTFQPSPAPDPPGGLTYFPVADLSIIAALYARFTAQIRGAVDLSLYPREGGVSSRELVKKVSDVIWNSLSRSYFKDRAHIQSLFSFITGTKLDSSGVAFAVVGACQALGLRDVHLALSEDHAWVVFGPNGEQTAEVTWHGKGNEDRRGQTVNAGVAERSWLYLKGSYMRCDRKMEVAFMVCAINPSIDLHTDSLELLQLQQKLLWLLYDLGHLERYPMALGNLADLEELEPTPGRPDPLTLYHKGIASAKTYYRDEHIYPYMYLAGYHCRNRNVREALQAWADTATVIQDYNYCREDEEIYKEFFEVANDVIPNLLKEAASLLEAGEERPGEQSQGTQSQGSALQDPECFAHLLRFYDGICKWEEGSPTPVLHVGWATFLVQSLGRFEGQVRQKVRIVSREAEAAEAEEPWGEEAREGRRRGPRRESKPEEPPPPKKPALDKGLGTGQGAVSGPPRKPPGTVAGTARGPEGGSTAQVPAPTASPPPEGPVLTFQSEKMKGMKELLVATKINSSAIKLQLTAQSQVQMKKQKVSTPSDYTLSFLKRQRKGL
modifications: RED-NHS 2nd generation dye label on the labelled partner in the MST experiments
Kd (Wild-type menin (human) [1]): 10.4 µM
stoichiometry N (Wild-type menin (human) [5]): 2
Kd [6]: 10.5 µM
Kd (His-sumo-AR MBR A): 3000 µM
Kd (His-sumo-AR MBR B): 47 µM
stoichiometry N (Wild-type menin (human) [7]): 2

B2: AR MBR-DBD-LBD (domain or fragment)
chain: GEAGAVAPYGYTRPPQGLAGQESDFTAPDVWYPGGMVSRVPYPSPTCVKSEMGPWMDSYSGPYGDMRLETARDHVLPIDYYFPPQKTCLICGDEASGCHYGALTCGSCKVFFKRAAEGKQKYLCASRNDCTIDKFRRKNCPSCRLRKCYEAGMTLGARKLKKLGNLKLQEEGEASSTTSPTEETTQKLTVSHIEGYECQPIFLNVLEAIEPGVVCAGHDNNQPDSFAALLSSLNELGERQLVHVVKWAKALPGFRNLHVDDQMAVIQYSWMGLMVFAMGWRSFTNVNSRMLYFAPDLVFNEYRMHKSRMYSQCVRMRHLSQEFGWLQITPQEFLCMKALLLFSIIPVDGLKNQKFFDELRMNYIKELDRIIACKRKNPTSCSRRFYQLTKLLDSVQPIARELHQFTFDLLIKSHMVSVDFPEMMAEIISVQVPKILSGKVKPIYFHTQ
stoichiometry N (dynamic light scattering): 2

B4: menin Δ460-519/ 586-615 (natural protein)
chain: MGLKAAQKTLFPLRSIDDVVRLFAAELGREEPDLVLLSLVLGFVEHFLAVNRVIPTNVPELTFQPSPAPDPPGGLTYFPVADLSIIAALYARFTAQIRGAVDLSLYPREGGVSSRELVKKVSDVIWNSLSRSYFKDRAHIQSLFSFITGTKLDSSGVAFAVVGACQALGLRDVHLALSEDHAWVVFGPNGEQTAEVTWHGKGNEDRRGQTVNAGVAERSWLYLKGSYMRCDRKMEVAFMVCAINPSIDLHTDSLELLQLQQKLLWLLYDLGHLERYPMALGNLADLEELEPTPGRPDPLTLYHKGIASAKTYYRDEHIYPYMYLAGYHCRNRNVREALQAWADTATVIQDYNYCREDEEIYKEFFEVANDVIPNLLKEAASLLEAGEERPGEQSQGTQSQGSALQDPECFAHLLRFYDGICKWEEGSPTPVLHVGWATFLVQSLGRFEGQVRQKVRIVSGTVAGTARGPEGGSTAQVPAPTASPPPEGPVLTFQSEKMKGMKELLVATKINSSAIKLQLTAQSQV
modifications: RED-NHS 2nd generation dye label on the labelled partner in the MST experiments
Kd (MST): 3.2 ± 0.8 µM

The next lines start with results.

Kd (Wild-type menin (human) [1]): 24 µM
Molecule: His-sumo-AR MBR B (from UniProt P10275 509-559) (domain or fragment)

Kd (Wild-type menin (human) [2]): 9.8 µM
Kd [3]: 2 µM
Kd (menin Δ460-519 (human)): 6.3 µM
Kd (menin-MLL complex): 10.8 µM
Kd (Wild-type menin (human) [1]): 1.7 µM
Molecule: His-sumo-AR MBR (aa. G473-T560) (domain or fragment)

Kd (Wild-type menin (human) [1]): 1000 µM
Molecule: His-sumo-AR MBR A (from UniProt P10275 473-518) (domain or fragment)

Kd (AR MBR (aa. G473-T560)): 15.7 µM
Kd (AR-v7): 1.7 ± 1.8 µM
B3: menin Δ460-519 (natural protein)
chain: MGLKAAQKTLFPLRSIDDVVRLFAAELGREEPDLVLLSLVLGFVEHFLAVNRVIPTNVPELTFQPSPAPDPPGGLTYFPVADLSIIAALYARFTAQIRGAVDLSLYPREGGVSSRELVKKVSDVIWNSLSRSYFKDRAHIQSLFSFITGTKLDSSGVAFAVVGACQALGLRDVHLALSEDHAWVVFGPNGEQTAEVTWHGKGNEDRRGQTVNAGVAERSWLYLKGSYMRCDRKMEVAFMVCAINPSIDLHTDSLELLQLQQKLLWLLYDLGHLERYPMALGNLADLEELEPTPGRPDPLTLYHKGIASAKTYYRDEHIYPYMYLAGYHCRNRNVREALQAWADTATVIQDYNYCREDEEIYKEFFEVANDVIPNLLKEAASLLEAGEERPGEQSQGTQSQGSALQDPECFAHLLRFYDGICKWEEGSPTPVLHVGWATFLVQSLGRFEGQVRQKVRIVSGTVAGTARGPEGGSTAQVPAPTASPPPEGPVLTFQSEKMKGMKELLVATKINSSAIKLQLTAQSQVQMKKQKVSTPSDYTLSFLKRQRKGL
modifications: RED-NHS 2nd generation dye label on the labelled partner in the MST experiments
Kd (MST): 1.9 ± 0.9 µM
stoichiometry N (HPLC-SAXS): 2
